# B1: E3 ubiquitin-protein ligase LNX (Homo sapiens), Q8TBB1 (parent)
# chain: MNQPESANDPEPLCAVCGQAHSLEENHFYSYPEEVDDDLICHICLQALLDPLDTPCGHTYCTLCLTNFLVEKDFCPMDRKPLVLQHCKKSSILVNKLLNKLLVTCPFREHCTQVLQRCDLEHHFQTSCKGASHYGLTKDRKRRSQDGCPDGCASLTATAPSPEVSAAATISLMTDEPGLDNPAYVSSAEDGQPAISPVDSGRSNRTRARPFERSTIRSRSFKKINRALSVLRRTKSGSAVANHADQGRENSENTTAPEVFPRLYHLIPDGEITSIKINRVDPSESLSIRLVGGSETPLVHIIIQHIYRDGVIARDGRLLPGDIILKVNGMDISNVPHNYAVRLLRQPCQVLWLTVMREQKFRSRNNGQAPDAYRPRDDSFHVILNKSSPEEQLGIKLVRKVDEPGVFIFNVLDGGVAYRHGQLEENDRVLAINGHDLRYGSPESAAHLIQASERRVHLVVSRQVRQRSPDIFQEAGWNSNGSWSPGPGERSNTPKPLHPTITCHEKVVNIQKDPGESLGMTVAGGASHREWDLPIYVISVEPGGVISRDGRIKTGDILLNVDGVELTEVSRSEAVALLKRTSSSIVLKALEVKEYEPQEDCSSPAALDSNHNMAPPSDWSPSWVMWLELPRCLYNCKDIVLRRNTAGSLGFCIVGGYEEYNGNKPFFIKSIVEGTPAYNDGRIRCGDILLAVNGRSTSGMIHACLARLLKELKGRITLTIVSWPGTFL
# partner: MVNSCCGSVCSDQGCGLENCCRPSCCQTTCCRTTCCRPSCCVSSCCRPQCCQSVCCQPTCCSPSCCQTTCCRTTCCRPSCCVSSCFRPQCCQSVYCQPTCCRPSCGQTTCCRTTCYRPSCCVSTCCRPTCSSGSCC
# B2: CGG triplet repeat-binding protein 1 (Homo sapiens), Q9UFW8 (parent)
# chain: MERFVVTAPPARNRSKTALYVTPLDRVTEFGGELHEDGGKLFCTSCNVVLNHVRKSAISDHLKSKTHTKRKAEFEEQNVRKKQRPLTASLQCNSTAQTEKVSVIQDFVKMCLEANIPLEKADHPAVRAFLSRHVKNGGSIPKSDQLRRAYLPDGYENENQLLNSQDC
# partner: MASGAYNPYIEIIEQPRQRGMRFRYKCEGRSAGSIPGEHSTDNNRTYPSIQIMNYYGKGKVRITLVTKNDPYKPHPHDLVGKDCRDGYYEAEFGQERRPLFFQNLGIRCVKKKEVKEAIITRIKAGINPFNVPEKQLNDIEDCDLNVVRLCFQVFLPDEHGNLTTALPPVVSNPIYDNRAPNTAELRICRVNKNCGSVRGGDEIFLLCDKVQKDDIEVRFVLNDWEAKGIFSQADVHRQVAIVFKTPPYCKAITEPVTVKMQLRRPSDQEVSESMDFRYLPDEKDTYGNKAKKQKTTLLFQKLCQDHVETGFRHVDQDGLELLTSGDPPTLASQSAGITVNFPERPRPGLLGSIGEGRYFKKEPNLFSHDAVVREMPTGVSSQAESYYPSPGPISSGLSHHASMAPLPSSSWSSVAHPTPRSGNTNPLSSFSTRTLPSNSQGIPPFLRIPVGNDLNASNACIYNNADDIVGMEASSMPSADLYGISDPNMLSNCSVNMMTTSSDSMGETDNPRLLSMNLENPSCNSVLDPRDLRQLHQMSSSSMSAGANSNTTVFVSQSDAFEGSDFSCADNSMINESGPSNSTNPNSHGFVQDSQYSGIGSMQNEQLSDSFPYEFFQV
# B3: Histone-lysine N-methyltransferase SMYD1 (Homo sapiens), Q8NB12 (parent)
# chain: MTIGRMENVEVFTAEGKGRGLKATKEFWAADIIFAERAYSAVVFDSLVNFVCHTCFKRQEKLHRCGQCKFAHYCDRTCQKDAWLNHKNECSAIKRYGKVPNENIRLAARIMWRVEREGTGLTEGCLVSVDDLQNHVEHFGEEEQKDLRVDVDTFLQYWPPQSQQFSMQYISHIFGVINCNGFTLSDQRGLQAVGVGIFPNLGLVNHDCWPNCTVIFNNGNHEAVKSMFHTQMRIELRALGKISEGEELTVSYIDFLNVSEERKRQLKKQYYFDCTCEHCQKKLKDDLFLGVKDNPKPSQEVVKEMIQFSKDTLEKIDKARSEGLYHEVVKLCRECLEKQEPVFADTNIYMLRMLSIVSEVLSYLQAFEEASFYARRMVDGYMKLYHPNNAQLGMAVMRAGLTNWHAGNIEVGHGMICKAYAILLVTHGPSHPITKDLEAMRVQTEMELRMFRQNEFMYYKMREAALNNQPMQVMAEPSNEPSPALFHKKQ
# partner: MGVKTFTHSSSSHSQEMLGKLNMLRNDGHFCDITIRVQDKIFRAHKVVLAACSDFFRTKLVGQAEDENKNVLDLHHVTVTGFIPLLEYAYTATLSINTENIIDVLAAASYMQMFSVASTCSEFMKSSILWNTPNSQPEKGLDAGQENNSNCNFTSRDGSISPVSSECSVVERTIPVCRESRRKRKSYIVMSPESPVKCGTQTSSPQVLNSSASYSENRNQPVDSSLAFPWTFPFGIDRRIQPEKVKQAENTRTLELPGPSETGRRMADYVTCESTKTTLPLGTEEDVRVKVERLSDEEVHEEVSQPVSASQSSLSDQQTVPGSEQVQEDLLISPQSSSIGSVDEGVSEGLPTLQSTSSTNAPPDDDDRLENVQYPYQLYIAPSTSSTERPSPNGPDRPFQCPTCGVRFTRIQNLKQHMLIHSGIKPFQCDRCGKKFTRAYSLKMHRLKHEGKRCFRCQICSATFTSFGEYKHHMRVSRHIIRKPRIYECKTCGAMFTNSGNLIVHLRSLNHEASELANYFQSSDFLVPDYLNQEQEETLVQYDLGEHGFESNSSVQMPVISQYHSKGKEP
# B4: Atypical chemokine receptor 2 (Homo sapiens), O00590 (parent)
# chain: MAATASPQPLATEDADSENSSFYYYDYLDEVAFMLCRKDAVVSFGKVFLPVFYSLIFVLGLSGNLLLLMVLLRYVPRRRMVEIYLLNLAISNLLFLVTLPFWGISVAWHWVFGSFLCKMVSTLYTINFYSGIFFISCMSLDKYLEIVHAQPYHRLRTRAKSLLLATIVWAVSLAVSIPDMVFVQTHENPKGVWNCHADFGGHGTIWKLFLRFQQNLLGFLLPLLAMIFFYSRIGCVLVRLRPAGQGRALKIAAALVVAFFVLWFPYNLTLFLHTLLDLQVFGNCEVSQHLDYALQVTESIAFLHCCFSPILYAFSSHRFRQYLKAFLAAVLGWHLAPGTAQASLSSCSESSILTAQEEMTGMNDLGERQSENYPNKEDVGNKSA
# B5: Cilium assembly protein DZIP1L (Homo sapiens), Q8IYY4 (parent)
# chain: MQSPAATAEGLSGPLFGAYTFPTFKFQPRHDSMDWRRISTLDVDRVARELDVATLQENIAGITFCNLDREVCSRCGQPVDPALLKVLRLAQLIIEYLLHCQDCLSASVAQLEARLQTSLGQQQRGQQELGRQADELKGVREESRRRRKMISTLQQLLMQTGTHSYHTCHLCDKTFMNATFLRGHIQRRHAGVAEGGKQKKQEQPVEEVLEELRAKLKWTQGELEAQREAERQRQLQEAELIHQREIEAKKEFDKWKEQEWTKLYGEIDKLKKLFWDEFKNVAKQNSTLEEKLRALQSHSVMESKLGSLRDEESEEWLRQARELQALREKTEIQKTEWKRKVKELHEEHMAEKKELQEENQRLQASLSQDQKKAAAQSQCQISTLRAQLQEQARIIASQEEMIQSLSLRKVEGIHKVPKAVDTEEDSPEEEMEDSQDEQHKVLAALRRNPTLLKHFRPILEDTLEEKLESMGIRKDAKGISIQTLRHLESLLRVQREQKARKFSEFLSLRGKLVKEVTSRAKERQENGAVVSQPDGQPSVKSQQSTLVTREAQPKTRTLQVALPSTPAEPPPPTRQSHGSHGSSLTQVSAPAPRPGLHGPSSTPPSSGPGMSTPPFSSEEDSEGDRVQRVSLQPPKVPSRMVPRPKDDWDWSDTETSEENAQPPGQGSGTLVQSMVKNLEKQLEAPAKKPAGGVSLFFMPNAGPQRAATPGRKPQLSEDESDLEISSLEDLPLDLDQREKPKPLSRSKLPEKFGTGPQSSGQPRVPAW
# B6: Isoform 2 of Synaptoporin (Homo sapiens), Q8TBG9-2 (parent)
# chain: MDPVSQLASAGTFRVLKEPLAFLRALELLFAIFAFATCGGYSGGLRLSVDCVNKTESNLSIDIAFAYPFRLHQVTFEVPTCEGKERQKLALIGDSSSSAEFFVTVAVFAFLYSLAATVVYIFFQNKYRENNRGPLIDFIVTVVFSFLWLVGSSAWAKGLSDVKVATDPKEVLLLMSACKQPSNKCMAIHSPVMSSLNTSVVFGFLNFILWAGNIWFVFKETGWHSSGQRYLSDPMEKHSSSYNQGGYNQDSYGSSSGYSQQASLGPTSDEFGQQPTGPTSFTNQI
# B7: Zinc finger and BTB domain-containing protein 49 (Homo sapiens), Q6ZSB9 (parent)
# chain: MDPVATHSCHLLQQLHEQRIQGLLCDCMLVVKGVCFKAHKNVLAAFSQYFRSLFQNSSSQKNDVFHLDVKNVSGIGQILDFMYTSHLDLNQDNIQVMLDTAQCLQVQNVLSLCHTFLKSATVVQPPGMPCNSTLSLQSTLTPDATCVISENYPPHLLQECSADAQQNKTLDESHPHASPSVNRHHSAGEISKQAPDTSDGSCTELPFKQPNYYYKLRNFYSKQYHKHAAGPSQERVVEQPFAFSTSTDLTTVESQPCAVSHSECILESPEHLPSNFLAQPVNDSAPHPESDATCQQPVKQMRLKKAIHLKKLNFLKSQKYAEQVSEPKSDDGLTKRLESASKNTLEKASSQSAEEKESEEVVSCENFNCISETERPEDPAALEDQSQTLQSQRQYACELCGKPFKHPSNLELHKRSHTGEKPFECNICGKHFSQAGNLQTHLRRHSGEKPYICEICGKRFAASGDVQRHIIIHSGEKPHLCDICGRGFSNFSNLKEHKKTHTADKVFTCDECGKSFNMQRKLVKHRIRHTGERPYSCSACGKCFGGSGDLRRHVRTHTGEKPYTCEICNKCFTRSAVLRRHKKMHCKAGDESPDVLEELSQAIETSDLEKSQSSDSFSQDTSVTLMPVSVKLPVHPVENSVAEFDSHSGGSYCKLRSMIQPHGVSDQEKLSLDPGKLAKPQMQQTQPQAYAYSDVDTPAGGEPLQADGMAMIRSSLAALDNHGGDPLGSRASSTTYRNSEGQFFSSMTLWGLAMKTLQNENELDQ
# B8: E3 ubiquitin-protein ligase LNX (Homo sapiens), Q8TBB1 (parent)
# chain: B1 chain
# partner: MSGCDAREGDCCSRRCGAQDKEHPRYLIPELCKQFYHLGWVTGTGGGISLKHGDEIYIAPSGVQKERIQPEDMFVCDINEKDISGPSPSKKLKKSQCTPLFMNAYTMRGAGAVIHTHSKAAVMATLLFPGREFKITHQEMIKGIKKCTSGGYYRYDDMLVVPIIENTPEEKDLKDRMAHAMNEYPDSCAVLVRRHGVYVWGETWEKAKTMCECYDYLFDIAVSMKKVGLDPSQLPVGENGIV
# B9: E3 ubiquitin-protein ligase LNX (Homo sapiens), Q8TBB1 (parent)
# chain: B1 chain
# partner: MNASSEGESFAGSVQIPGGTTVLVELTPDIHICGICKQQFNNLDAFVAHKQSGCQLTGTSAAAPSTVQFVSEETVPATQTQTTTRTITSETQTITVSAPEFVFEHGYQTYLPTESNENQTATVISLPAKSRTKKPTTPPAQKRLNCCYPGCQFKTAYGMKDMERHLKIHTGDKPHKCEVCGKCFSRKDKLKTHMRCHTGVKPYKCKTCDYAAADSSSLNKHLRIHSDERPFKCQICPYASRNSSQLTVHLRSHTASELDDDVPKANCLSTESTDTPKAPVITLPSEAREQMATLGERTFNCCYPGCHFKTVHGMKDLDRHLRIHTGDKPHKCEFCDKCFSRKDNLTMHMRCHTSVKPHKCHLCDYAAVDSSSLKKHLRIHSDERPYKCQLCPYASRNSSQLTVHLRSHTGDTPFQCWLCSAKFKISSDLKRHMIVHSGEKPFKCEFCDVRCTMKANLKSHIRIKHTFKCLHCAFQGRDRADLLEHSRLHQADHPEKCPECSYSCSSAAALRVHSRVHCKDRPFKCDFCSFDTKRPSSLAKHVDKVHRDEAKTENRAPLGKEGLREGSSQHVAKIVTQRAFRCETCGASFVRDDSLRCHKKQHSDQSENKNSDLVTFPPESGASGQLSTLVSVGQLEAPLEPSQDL
# B10: E3 ubiquitin-protein ligase LNX (Homo sapiens), Q8TBB1 (parent)
# chain: B1 chain
# partner: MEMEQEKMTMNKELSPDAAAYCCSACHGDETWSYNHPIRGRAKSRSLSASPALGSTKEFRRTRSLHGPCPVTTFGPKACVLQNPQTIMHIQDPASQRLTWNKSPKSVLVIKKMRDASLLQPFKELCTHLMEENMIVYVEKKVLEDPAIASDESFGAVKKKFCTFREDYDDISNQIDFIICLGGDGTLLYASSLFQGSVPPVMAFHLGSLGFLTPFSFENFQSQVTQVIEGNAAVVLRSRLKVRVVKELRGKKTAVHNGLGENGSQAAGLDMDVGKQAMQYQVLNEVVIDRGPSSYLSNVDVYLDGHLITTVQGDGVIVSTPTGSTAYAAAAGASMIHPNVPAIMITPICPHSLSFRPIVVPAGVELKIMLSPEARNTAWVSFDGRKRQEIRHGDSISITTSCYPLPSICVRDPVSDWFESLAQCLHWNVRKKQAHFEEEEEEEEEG
# Variants of: B1
# Conditions: with kra42_human KRTAP4-2, Q9BYR5
row,effect of a mutation on the interaction,Variant
1,disrupting interaction strength,E295K

# Variants of: B2
# Conditions: with rel_human REL
row,effect of a mutation on the interaction,Variant
1,disrupting interaction strength,R54C

# Variants of: B3
# Conditions: with zbt44_human ZBTB44, Q8NCP5
row,effect of a mutation on the interaction,Variant
1,disrupting interaction strength,Q443R

# Variants of: B4
# Conditions: with creb3_human CREB3, O43889
# Target sequence in this assay (O43889 whole entry): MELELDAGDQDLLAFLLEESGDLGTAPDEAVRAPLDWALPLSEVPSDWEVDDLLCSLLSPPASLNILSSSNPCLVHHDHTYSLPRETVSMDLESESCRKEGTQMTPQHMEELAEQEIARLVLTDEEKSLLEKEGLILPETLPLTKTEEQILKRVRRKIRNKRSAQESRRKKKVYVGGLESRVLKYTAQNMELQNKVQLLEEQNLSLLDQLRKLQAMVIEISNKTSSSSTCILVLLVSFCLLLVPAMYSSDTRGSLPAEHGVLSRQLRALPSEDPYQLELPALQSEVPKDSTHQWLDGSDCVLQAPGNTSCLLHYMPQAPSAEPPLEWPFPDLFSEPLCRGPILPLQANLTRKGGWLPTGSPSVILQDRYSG
row,effect of a mutation on the interaction,Variant
1,with no effect,V42M

# Variants of: B5
# Conditions: with cep76_human CEP76, Q8TAP6
# cep76_human CEP76, Q8TAP6, sequence (Q8TAP6 whole entry): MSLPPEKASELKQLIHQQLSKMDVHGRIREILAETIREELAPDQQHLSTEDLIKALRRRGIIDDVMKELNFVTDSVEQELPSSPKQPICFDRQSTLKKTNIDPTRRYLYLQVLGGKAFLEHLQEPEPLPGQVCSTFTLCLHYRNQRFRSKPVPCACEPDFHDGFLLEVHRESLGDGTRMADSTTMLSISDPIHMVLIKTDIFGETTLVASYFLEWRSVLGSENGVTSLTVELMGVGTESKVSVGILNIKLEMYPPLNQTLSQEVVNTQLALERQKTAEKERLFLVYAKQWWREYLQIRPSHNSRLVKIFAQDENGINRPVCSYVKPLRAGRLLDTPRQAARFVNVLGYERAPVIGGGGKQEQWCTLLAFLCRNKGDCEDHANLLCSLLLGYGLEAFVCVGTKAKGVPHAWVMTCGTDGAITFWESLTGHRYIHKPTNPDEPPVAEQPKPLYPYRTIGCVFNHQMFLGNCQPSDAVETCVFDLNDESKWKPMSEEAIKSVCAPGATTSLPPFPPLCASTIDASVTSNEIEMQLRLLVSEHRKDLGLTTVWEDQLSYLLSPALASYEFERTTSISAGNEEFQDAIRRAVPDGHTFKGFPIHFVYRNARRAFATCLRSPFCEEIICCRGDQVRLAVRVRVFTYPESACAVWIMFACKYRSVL
row,effect of a mutation on the interaction,Variant
1,with no effect,R643W

# Variants of: B6
# Conditions: with creb3_human CREB3, O43889
# Target sequence in this assay (O43889 whole entry): as the sequence (O43889 whole entry) above
row,effect of a mutation on the interaction,Variant
1,with no effect,A115P

# Variants of: B7
# Conditions: with gopc_human GOPC
row,effect of a mutation on the interaction,Variant
1,with no effect,D88V

# Variants of: B8
# Conditions: with mtnb_human APIP
row,effect of a mutation on the interaction,Variant
1,disrupting interaction strength,E295K

# Variants of: B9
# Conditions: with zf64b_human ZFP64, Q9NTW7
row,effect of a mutation on the interaction,Variant
1,disrupting interaction strength,E295K

# Variants of: B10
# Conditions: with nadk_human NADK
row,effect of a mutation on the interaction,Variant
1,disrupting interaction strength,E295K
